Data reported in patent US20230303675A1.

What was measured:
[1] = target: mouse Ang2 (angiopoietin-2) (mouse) (UniProt O35608); assay: BLI (Octet), scFv amine-coupled on AR2G biosensor, Ang2 in solution
[2] = target: human Ang2 (angiopoietin-2) (human) (UniProt O15123); assay: BLI (Octet), scFv amine-coupled on AR2G biosensor, Ang2 in solution at 50, 40, 30, 20 nM
UniProt O15123, sequence (O15123 19-496 limits assumed): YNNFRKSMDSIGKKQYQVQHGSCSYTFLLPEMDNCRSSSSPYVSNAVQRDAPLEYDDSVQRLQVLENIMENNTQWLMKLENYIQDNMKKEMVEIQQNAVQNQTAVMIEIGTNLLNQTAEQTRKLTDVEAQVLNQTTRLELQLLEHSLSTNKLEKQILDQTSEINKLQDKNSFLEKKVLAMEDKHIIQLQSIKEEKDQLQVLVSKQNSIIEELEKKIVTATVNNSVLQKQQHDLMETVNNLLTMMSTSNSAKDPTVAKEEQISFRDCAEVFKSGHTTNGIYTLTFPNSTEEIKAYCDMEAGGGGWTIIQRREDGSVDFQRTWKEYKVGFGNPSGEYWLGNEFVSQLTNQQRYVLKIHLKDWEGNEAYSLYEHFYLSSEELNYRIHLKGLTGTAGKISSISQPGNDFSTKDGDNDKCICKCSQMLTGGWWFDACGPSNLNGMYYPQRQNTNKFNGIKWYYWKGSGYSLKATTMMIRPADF

UniProt O35608, sequence (O35608 19-496 limits assumed): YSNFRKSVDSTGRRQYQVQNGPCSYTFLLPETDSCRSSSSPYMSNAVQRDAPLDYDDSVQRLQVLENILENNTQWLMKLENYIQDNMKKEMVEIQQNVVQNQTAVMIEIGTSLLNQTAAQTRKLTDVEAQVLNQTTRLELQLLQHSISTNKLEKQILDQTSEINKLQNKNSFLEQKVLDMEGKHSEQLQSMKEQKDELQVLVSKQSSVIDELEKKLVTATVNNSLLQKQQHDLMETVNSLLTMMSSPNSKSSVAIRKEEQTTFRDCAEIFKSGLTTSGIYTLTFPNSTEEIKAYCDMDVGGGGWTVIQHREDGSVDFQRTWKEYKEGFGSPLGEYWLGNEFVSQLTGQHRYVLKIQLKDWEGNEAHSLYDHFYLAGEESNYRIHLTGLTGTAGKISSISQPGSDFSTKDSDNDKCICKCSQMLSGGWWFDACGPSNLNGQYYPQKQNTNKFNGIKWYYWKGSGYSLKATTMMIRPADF

Kd [1]: 0.231 nM
koff [1]: 0.000169 s⁻¹
kon [1]: 733000 M⁻¹ s⁻¹
Kd [2]: 0.313 nM
koff [2]: 0.000172 s⁻¹
kon [2]: 549000 M⁻¹ s⁻¹
B1: anti-Ang2 antibody clone O4 ScFv with N76S substitution in the light-chain variable region (scFv, part only; not given: Linker, domain order and His tag, V domains shown, not shown: another chain or arm of the molecule; small tags and cut ends)
VH: QVQLVESGGGLVKPGGSLRLSCAASGFTFSSYSMNWVRQAPGKGLEWVSSISASDGATYYADSVRGRFTISRDNSRSTLYLQMNSLRAEDTAVYYCAKTLAGYSGPMGGMDVWGQGTTVTVSS
VL: DIQMTQSPSSLSASVGDRVTITCRASRDISNYLAWYQQKPGKAPKSLIYGASNLQSGVSSQFSGSGSGTDFTLTISSLQPEDSATYYCQQYYSYPLTFGGGTKVDIK
